Assay [1] addresses human cytoplasmic dynein-1 complex (recombinant, SNAPf tag on the heavy chain) (human) (UniProt Q14204).
For assay [2] the target is unchanged. Nature of the assay: single-molecule TIRF co-localisation on microtubules; Alexa647-BICD2N (10x) and TMR-dynein (20 nM in the assembly mix, 1 in 2 dilution) with EB1, dynactin (2x) and LIS1 (20x) on dynamic microtubules.
Assay [3] deals with microtubules polymerised from porcine tubulin (porcine). Briefly: single-molecule TIRF microscopy of binding to microtubules; dynein (100 nM in the assembly mix, 1 in 20 dilution) alone or with a 20x or 300x molar excess of LIS1 on immobilised taxol/GMPCPP-stabilised microtubules, without EB1 and dynactin; 2.5 mM ATP.
The target in assay [4] is native dynactin complex purified from pig brain (pig (purified from pig brain)).

Chain of SNAPf::BICD2N (residues 1-400 of mouse Bicaudal-D2 with an N-terminal SNAPf tag) (Q921C5 1-400): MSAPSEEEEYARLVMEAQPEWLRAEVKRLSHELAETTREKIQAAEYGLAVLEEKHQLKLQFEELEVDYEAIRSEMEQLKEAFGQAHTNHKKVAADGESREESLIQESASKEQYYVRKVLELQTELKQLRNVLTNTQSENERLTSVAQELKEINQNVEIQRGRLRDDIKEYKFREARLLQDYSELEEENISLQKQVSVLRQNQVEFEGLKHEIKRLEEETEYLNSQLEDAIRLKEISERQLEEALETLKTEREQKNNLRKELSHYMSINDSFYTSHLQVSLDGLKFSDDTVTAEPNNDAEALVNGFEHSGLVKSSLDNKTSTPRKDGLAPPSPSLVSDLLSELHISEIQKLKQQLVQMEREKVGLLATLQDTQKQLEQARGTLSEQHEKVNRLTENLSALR

Consider “SNAPf::BICD2N (residues 1-400 of mouse Bicaudal-D2 with an N-terminal SNAPf tag) (from UniProt Q921C5 1-400) (domain or fragment)”, for which the proportion of microtubule-associated dynein complexes in minus end-directed motion with dynactin and BICD2N, without (45%) and with LIS1 (70%) in assay [1] turned out to be 70%. Also, the percent of plus-end tracking events of TMR-dynein with Alexa647-BICD2N signal in assay [2] was found to be 40%.

“human cytoplasmic dynein-1 complex (recombinant, SNAPf tag on the heavy chain) (from UniProt Q14204 1-4646; O43237-1 1-492; P63172 1-113; P63167 1-89; Q9NP97-1 1-96)” came in with a fold increase of the landing rate on the lattice with a 300-fold molar excess of LIS1 against no LIS1 in assay [3] of 3 fold. In assay [4], the plus-end tracking of Alexa647-dynein on growing microtubules with EB1 and dynactin (TIRF): maximal duration of tracking events is 9 s; the plus-end tracking of Alexa647-dynein on growing microtubules with EB1 and dynactin (TIRF): mean duration of tracking events was determined as 4 s.

(Values after paper PMC5413349.)
